{
  "source": "patent US20110300138A1",
  "about": "(published 2011)",
  "key": {"[1]": {"target": "TSH receptor (TSHR), full length human, coated on tubes (human) (UniProt P16473)", "assay": "inhibition of 125I-TSH binding to TSHR coated tubes; 1 µg/mL, diluted in assay buffer"}, "[2]": {"target": "TSH receptor (TSHR), full length human, coated on tubes (human) (UniProt P16473)", "assay": "inhibition of 125I-TSH binding to TSHR coated tubes; 0.1 µg/mL, diluted in HBD serum pool"}, "wild type TSHR (human)": {"target": "wild type TSHR (human) (UniProt P16473)", "assay": "cell-based or functional assay"}, "[3]": {"target": "TSHR with Tyr206 mutated to Ala (human) (UniProt P16473)", "assay": "cell-based or functional assay"}, "[4]": {"target": "human thyroid stimulating hormone receptor (TSHR), full length (human) (UniProt P16473)", "assay": "125I-K1-70 Fab (competitor) binding to TSHR coated tubes; negative control MAb 100 µg/mL in HBD serum"}, "TSHR260-AP (human)": {"target": "TSHR260-AP (human)", "assay": "TSHR260-AP bridge ELISA (full length TSHR on wells, TSHR260-AP in solution); IgG 100 µg/mL diluted in assay buffer"}, "[5]": {"target": "TSHR (full length) coated on tubes (human) (UniProt P16473)", "assay": "inhibition of 125I-K1-18 Fab (competitor) binding to TSHR coated tubes; negative control 100 µg/mL in HBD serum"}, "[6]": {"target": "TSHR with Asp232 mutated to Ala expressed in CHO cells (human) (UniProt P16473)", "assay": "cell-based or functional assay"}, "[7]": {"target": "wild type TSHR expressed in CHO cells (human) (UniProt P16473)", "assay": "cell-based or functional assay"}, "[8]": {"target": "TSHR with Arg255 mutated to Asp expressed in CHO cells (human) (UniProt P16473)", "assay": "cell-based or functional assay"}, "[9]": {"target": "wild type TSHR expressed in CHO cells (human) (UniProt P16473)", "assay": "cell-based or functional assay", "remark": "listed apart in the source"}, "[10]": {"target": "TSHR260-alkaline phosphatase (TSHR260-AP) (human) (UniProt P05187)", "assay": "TSHR260-AP bridge ELISA, full length TSHR on wells; 100 µg/mL, diluted in assay buffer"}, "[11]": {"target": "TSH receptor (TSHR), full length human, coated on tubes (human) (UniProt P16473)", "assay": "inhibition of 125I-K1-18 IgG binding to TSHR coated tubes; competitor 125I-K1-18 IgG; negative control sample at 1 µg/mL in HBD serum"}, "[12]": {"target": "human thyroid stimulating hormone receptor (TSHR), full length (human) (UniProt P16473)", "assay": "125I-K1-70 Fab (competitor) binding to TSHR coated tubes; test sample 0.01 µg/mL in assay buffer"}, "[13]": {"target": "full length wild type human TSHR (human) (UniProt P16473)", "assay": "TSHR260-AP bridge ELISA, wild type TSHR on wells; IgG at 0.005 µg/mL in HBD"}, "[14]": {"target": "full length wild type human TSHR (human) (UniProt P16473)", "assay": "TSHR260-AP bridge ELISA, wild type TSHR on wells; IgG at 0.05 µg/mL in HBD"}, "[15]": {"target": "thyroid stimulating hormone receptor (full length human TSHR) (human) (UniProt P16473)", "assay": "ELISA, inhibition of TSH-biotin binding to TSHR coated wells; 100 µg/mL, diluted in HBD serum pool"}, "[16]": {"target": "human thyroid stimulating hormone receptor (TSHR), full length (human) (UniProt P16473)", "assay": "125I-K1-70 Fab (competitor) binding to TSHR coated tubes; test sample 100 µg/mL in assay buffer"}, "[17]": {"target": "full length human TSHR with mutation Arg255 Asp (human) (UniProt P16473)", "assay": "TSHR260-AP bridge ELISA, Arg255 Asp TSHR on wells; IgG at 0.5 µg/mL in HBD"}, "[18]": {"target": "human thyroid stimulating hormone receptor (TSHR), full length (human) (UniProt P16473)", "assay": "125I-K1-70 Fab (competitor) binding to TSHR coated tubes; test sample 1 µg/mL in HBD serum"}, "[19]": {"target": "thyroid stimulating hormone receptor (full length human TSHR) (human) (UniProt P16473)", "assay": "ELISA, inhibition of TSH-biotin binding to TSHR coated wells; 100 µg/mL, diluted in assay buffer"}, "[20]": {"target": "thyroid stimulating hormone receptor (TSHR), full length, coated on tubes (human) (UniProt P16473)", "assay": "inhibition of 125I-TSH binding, TSHR coated tubes; antibody 100 µg/mL in assay buffer"}, "[21]": {"target": "full length human TSHR with mutation Arg255 Asp (human) (UniProt P16473)", "assay": "TSHR260-AP bridge ELISA, Arg255 Asp TSHR on wells; IgG at 10 µg/mL in HBD"}, "[22]": {"target": "full length wild type human TSHR (human) (UniProt P16473)", "assay": "TSHR260-AP bridge ELISA, wild type TSHR on wells; IgG at 0.1 µg/mL in HBD"}, "[23]": {"target": "full length human TSHR with mutation Arg255 Asp (human) (UniProt P16473)", "assay": "TSHR260-AP bridge ELISA, Arg255 Asp TSHR on wells; IgG at 0.01 µg/mL in HBD"}, "[24]": {"target": "full length wild type human TSHR (human) (UniProt P16473)", "assay": "TSHR260-AP bridge ELISA, wild type TSHR on wells; IgG at 1 µg/mL in HBD"}, "[25]": {"target": "thyroid stimulating hormone receptor (TSHR), full length, coated on tubes (human) (UniProt P16473)", "assay": "inhibition of 125I-TSH binding, TSHR coated tubes; antibody 10 µg/mL in assay buffer"}},
  "note": "Like-named read-outs stand apart in the source and are kept apart here.",
  "data": [
    {"substance": "5B3 IgG (antibody)", "values": [
      {"measurement": "Inhibition of binding (%)", "setting": "[1]", "result": -1.7, "unit": "%"},
      {"measurement": "Inhibition of binding (%)", "setting": "[2]", "result": 4.4, "unit": "%"},
      {"measurement": "% inhibition of TSH stimulation, 5B3 100 µg/mL, wild type TSHR", "setting": "wild type TSHR (human)", "result": 0, "unit": "%"},
      {"measurement": "Cyclic AMP produced (pmol/mL), 5B3 10 µg/mL + TSH 3 ng/mL, wild type TSHR", "setting": "wild type TSHR (human)", "result": 94.5, "unit": "pmol/mL"},
      {"measurement": "Cyclic AMP produced (pmol/mL), 5B3 100 µg/mL + TSH 3 ng/mL, wild type TSHR", "setting": "wild type TSHR (human)", "result": 101, "unit": "pmol/mL"},
      {"measurement": "% inhibition of TSH stimulation, 5B3 10 µg/mL, mutated TSHR", "setting": "[3]", "result": 10, "unit": "%"},
      {"measurement": "% inhibition of TSH stimulation, 5B3 100 µg/mL, mutated TSHR", "setting": "[3]", "result": 9, "unit": "%"},
      {"measurement": "Cyclic AMP produced (pmol/mL), 5B3 10 µg/mL + TSH 3 ng/mL, mutated TSHR", "setting": "[3]", "result": 74.6, "unit": "pmol/mL"},
      {"measurement": "Cyclic AMP produced (pmol/mL), 5B3 100 µg/mL + TSH 3 ng/mL, mutated TSHR", "setting": "[3]", "result": 75.2, "unit": "pmol/mL"},
      {"measurement": "Mutated/wild type (%) of cyclic AMP produced; 5B3 10 µg/mL + TSH 3 ng/mL", "setting": "[3]", "result": 79, "unit": "%"},
      {"measurement": "Mutated/wild type (%) of cyclic AMP produced; 5B3 100 µg/mL + TSH 3 ng/mL", "setting": "[3]", "result": 74, "unit": "%"},
      {"measurement": "Inhibition of binding (%)", "setting": "[4]", "result": -8.6, "unit": "%"},
      {"measurement": "Mean absorbance at 405 nm (absorbance at 405 nm)", "setting": "TSHR260-AP (human)", "result": -0.011},
      {"measurement": "Inhibition of binding (%)", "setting": "[5]", "result": -1.1, "unit": "%"},
      {"measurement": "% inhibition of TSH stimulation; 5B3 10 µg/mL", "setting": "[6]", "result": 10, "unit": "%"},
      {"measurement": "% inhibition of TSH stimulation; 5B3 100 µg/mL", "setting": "[6]", "result": 6, "unit": "%"},
      {"measurement": "Mutated/wild type (%) of cyclic AMP produced; 5B3 10 µg/mL + TSH 3 ng/mL", "setting": "[6]", "result": 59, "unit": "%"},
      {"measurement": "Mutated/wild type (%) of cyclic AMP produced; 5B3 100 µg/mL + TSH 3 ng/mL", "setting": "[6]", "result": 58, "unit": "%"},
      {"measurement": "% inhibition of TSH stimulation; 5B3 10 µg/mL", "setting": "[7]", "result": 0, "unit": "%"},
      {"measurement": "% inhibition of TSH stimulation; 5B3 100 µg/mL", "setting": "[7]", "result": 0, "unit": "%"},
      {"measurement": "% inhibition of TSH stimulation; 5B3 10 µg/mL", "setting": "[8]", "result": 0, "unit": "%"},
      {"measurement": "% inhibition of TSH stimulation; 5B3 100 µg/mL", "setting": "[8]", "result": 0, "unit": "%"},
      {"measurement": "Cyclic AMP produced; 5B3 10 µg/mL + TSH 3 ng/mL", "setting": "[8]", "result": 59.4, "unit": "pmol/mL"},
      {"measurement": "Cyclic AMP produced; 5B3 100 µg/mL + TSH 3 ng/mL", "setting": "[8]", "result": 62.2, "unit": "pmol/mL"},
      {"measurement": "Mutated/wild type (%) of cyclic AMP produced; 5B3 10 µg/mL + TSH 3 ng/mL", "setting": "[8]", "result": 86, "unit": "%"},
      {"measurement": "Mutated/wild type (%) of cyclic AMP produced; 5B3 100 µg/mL + TSH 3 ng/mL", "setting": "[8]", "result": 75, "unit": "%"},
      {"measurement": "% inhibition of TSH stimulation; 5B3 10 µg/mL", "setting": "[9]", "result": 0, "unit": "%"},
      {"measurement": "% inhibition of TSH stimulation; 5B3 100 µg/mL", "setting": "[9]", "result": 0, "unit": "%"},
      {"measurement": "Cyclic AMP produced; 5B3 10 µg/mL + TSH 3 ng/mL", "setting": "[9]", "result": 69.2, "unit": "pmol/mL"},
      {"measurement": "Cyclic AMP produced; 5B3 100 µg/mL + TSH 3 ng/mL", "setting": "[9]", "result": 83.4, "unit": "pmol/mL"},
      {"measurement": "Mean absorbance at 405 nm (absorbance at 405 nm)", "setting": "[10]", "result": -0.011},
      {"measurement": "Inhibition of binding (%)", "setting": "[11]", "result": -6.2, "unit": "%"}
    ]},
    {"substance": "9D33 IgG (antibody)", "values": [
      {"measurement": "Inhibition of binding (%)", "setting": "[1]", "result": 50.9, "unit": "%"},
      {"measurement": "Inhibition of binding (%)", "setting": "[2]", "result": 30.5, "unit": "%"},
      {"measurement": "Inhibition of binding (%)", "setting": "[12]", "result": 5, "unit": "%"},
      {"measurement": "Mean absorbance at 405 nm (absorbance at 405 nm)", "setting": "[13]", "result": 0.006},
      {"measurement": "Mean absorbance at 405 nm (absorbance at 405 nm)", "setting": "[14]", "result": 0.056},
      {"measurement": "Inhibition of binding (%)", "setting": "[15]", "result": 84, "unit": "%"},
      {"measurement": "Inhibition of binding (%)", "setting": "[16]", "result": 62.7, "unit": "%"},
      {"measurement": "Mean absorbance at 405 nm (absorbance at 405 nm)", "setting": "[17]", "result": 0.242},
      {"measurement": "Inhibition of binding (%)", "setting": "[18]", "result": 38.8, "unit": "%"},
      {"measurement": "Inhibition of binding (%)", "setting": "[19]", "result": 86.8, "unit": "%"},
      {"measurement": "Inhibition of binding (%)", "setting": "[20]", "result": 75.6, "unit": "%"},
      {"measurement": "Mean absorbance at 405 nm (absorbance at 405 nm)", "setting": "[21]", "result": 0.534},
      {"measurement": "Mean absorbance at 405 nm (absorbance at 405 nm)", "setting": "[22]", "result": 0.102},
      {"measurement": "Mean absorbance at 405 nm (absorbance at 405 nm)", "setting": "[23]", "result": -0.004},
      {"measurement": "Mean absorbance at 405 nm (absorbance at 405 nm)", "setting": "[24]", "result": 0.329},
      {"measurement": "Inhibition of binding (%)", "setting": "[25]", "result": 58.7, "unit": "%"}
    ]}
  ]
}
